# The RNAGym collection of RNA variant scans (doi:10.7554/elife.80360)
# B1: Hammerhead Ribozyme (parent)
# chain: ACCGGAUGUGCUUUCCGGUCUGAUGAGUCCGUGAGGACGAAACAG
# Variants of: B1
# Assay: self-cleavage, relative activity (ratio to wild type); higher = more cleavage; co-transcriptional
row,Variant,self-cleavage
1,A6G U21C,0.54
2,A6G U21G,0.472
3,A6G U24A,0.597
4,A6G U24C,0.944
5,A6G U24G,0.777
6,A6G U28A,0.468
7,A6G U28C,0.792
8,A6G U28G,0.461
9,A6G U32A,0.968
10,A6G U32C,0.931
11,A6G U32G,0.431
12,A6U,0.696
13,A6U A23C,0.368
14,A6U A23G,0.249
15,A6U A23U,0.311
16,A6U A26C,0.393
17,A6U A26G,0.291
18,A6U A26U,0.588
19,A6U A34C,0.651
20,A6U A34G,0.786
21,A6U A34U,0.631
22,A6U A37C,0.677
23,A6U A37G,0.529
24,A6U A37U,0.451

row,Variant,self-cleavage
1,A6U A40C,0.268
2,A6U A40G,0.317
3,A6U A40U,0.351
4,A6U A41C,0.334
5,A6U A41G,0.289
6,A6U A41U,0.282
7,A6U A42C,0.238
8,A6U A42G,0.307
9,A6U A42U,0.241
10,A6U A44C,0.455
11,A6U A44G,1.12
12,A6U A44U,0.36
13,A6U C11A,0.831
14,A6U C11G,0.827
15,A6U C11U,0.607
16,A6U C15A,0.741
17,A6U C15G,0.527
18,A6U C15U,0.708
19,A6U C16A,0.471
20,A6U C16G,0.459
21,A6U C16U,0.655
22,A6U C20A,0.373
23,A6U C20G,0.378
24,A6U C20U,0.454

row,Variant,self-cleavage
1,A6U C29A,0.475
2,A6U C29G,0.468
3,A6U C29U,0.451
4,A6U C30A,0.649
5,A6U C30G,0.525
6,A6U C30U,0.743
7,A6U C38A,0.511
8,A6U C38G,0.458
9,A6U C38U,0.627
10,A6U C43A,0.326
11,A6U C43G,0.342
12,A6U C43U,0.368
13,A6U G8A,0.807
14,A6U G8C,0.769
15,A6U G8U,0.489
16,A6U G10A,0.75
17,A6U G10C,0.522
18,A6U G10U,0.747
19,A6U G17A,0.401
20,A6U G17C,0.354
21,A6U G17U,0.465
22,A6U G18A,0.34
23,A6U G18C,0.395
24,A6U G18U,0.344

row,Variant,self-cleavage
1,A6U G22A,0.289
2,A6U G22C,0.354
3,A6U G22U,0.397
4,A6U G25A,0.308
5,A6U G25C,0.259
6,A6U G25U,0.355
7,A6U G27A,0.614
8,A6U G27C,0.552
9,A6U G27U,0.395
10,A6U G31A,0.748
11,A6U G31C,0.704
12,A6U G31U,0.889
13,A6U G33A,0.793
14,A6U G33C,0.551
15,A6U G33U,0.403
16,A6U G35A,0.505
17,A6U G35C,0.473
18,A6U G35U,0.499
19,A6U G36A,0.44
20,A6U G36C,0.334
21,A6U G36U,0.391
22,A6U G39A,0.281
23,A6U G39C,0.294
24,A6U G39U,0.364

row,Variant,self-cleavage
1,A6U G45A,0.536
2,A6U G45C,0.39
3,A6U G45U,0.468
4,A6U U7A,0.609
5,A6U U7C,0.356
6,A6U U7G,0.829
7,A6U U9A,0.617
8,A6U U9C,0.654
9,A6U U9G,0.641
10,A6U U12A,0.538
11,A6U U12C,0.716
12,A6U U12G,0.447
13,A6U U13A,0.747
14,A6U U13C,1.02
15,A6U U13G,0.616
16,A6U U14A,1.06
17,A6U U14C,1.07
18,A6U U14G,0.624
19,A6U U19A,0.337
20,A6U U19C,0.47
21,A6U U19G,0.395
22,A6U U21A,0.517
23,A6U U21C,0.616
24,A6U U21G,0.449

row,Variant,self-cleavage
1,A6U U24A,0.494
2,A6U U24C,0.573
3,A6U U24G,0.642
4,A6U U28A,0.377
5,A6U U28C,0.638
6,A6U U28G,0.373
7,A6U U32A,0.605
8,A6U U32C,0.988
9,A6U U32G,0.559
10,U7A,1.28
11,U7A A23C,0.434
12,U7A A23G,0.308
13,U7A A23U,0.322
14,U7A A26C,0.311
15,U7A A26G,0.221
16,U7A A26U,0.556
17,U7A A34C,1.78
18,U7A A34G,1.07
19,U7A A34U,1.22
20,U7A A37C,1.12
21,U7A A37G,0.907
22,U7A A37U,0.497
23,U7A A40C,0.261
24,U7A A40G,0.298

row,Variant,self-cleavage
1,U7A A40U,0.244
2,U7A A41C,0.407
3,U7A A41G,0.368
4,U7A A41U,0.258
5,U7A A42C,0.358
6,U7A A42G,0.216
7,U7A A42U,0.257
8,U7A A44C,0.397
9,U7A A44G,1.46
10,U7A A44U,0.375
11,U7A C11A,1.55
12,U7A C11G,1.52
13,U7A C11U,1.4
14,U7A C15A,0.852
15,U7A C15G,0.987
16,U7A C15U,1.04
17,U7A C16A,1.29
18,U7A C16G,0.851
19,U7A C16U,1.17
20,U7A C20A,0.298
21,U7A C20G,0.376
22,U7A C20U,0.345
23,U7A C29A,0.511
